The results in this text go back to patent publication CN113045675A (BEIJING ROCK EDGE BIOTECHNOLOGY CO LTD, dated 2021).

Assay [1] addresses T1, CD22蛋白胞外段 (CD22 extracellular domain, C-terminal His tag) (human, UniProt P20273 20-687).
T1 construct: extracellular domain; also called CD22胞外段蛋白; CD22蛋白分子; not shown: C-terminal His tag
T1 sequence (looked up): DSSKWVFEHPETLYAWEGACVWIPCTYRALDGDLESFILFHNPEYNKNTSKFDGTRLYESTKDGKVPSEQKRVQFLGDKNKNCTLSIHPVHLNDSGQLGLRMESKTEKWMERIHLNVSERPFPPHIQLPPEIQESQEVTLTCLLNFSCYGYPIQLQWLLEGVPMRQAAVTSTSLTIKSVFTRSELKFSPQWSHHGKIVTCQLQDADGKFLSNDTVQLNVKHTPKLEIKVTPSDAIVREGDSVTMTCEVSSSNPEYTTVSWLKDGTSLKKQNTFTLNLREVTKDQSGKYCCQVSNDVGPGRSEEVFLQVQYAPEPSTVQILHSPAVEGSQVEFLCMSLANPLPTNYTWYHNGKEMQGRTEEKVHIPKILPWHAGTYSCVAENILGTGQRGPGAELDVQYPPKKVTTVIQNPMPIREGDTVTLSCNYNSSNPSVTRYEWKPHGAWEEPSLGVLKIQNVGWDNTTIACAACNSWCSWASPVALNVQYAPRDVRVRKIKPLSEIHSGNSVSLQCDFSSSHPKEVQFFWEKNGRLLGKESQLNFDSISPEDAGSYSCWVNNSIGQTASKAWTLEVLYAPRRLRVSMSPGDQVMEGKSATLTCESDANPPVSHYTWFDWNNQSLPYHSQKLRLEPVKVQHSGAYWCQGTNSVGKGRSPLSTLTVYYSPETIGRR
Kind of assay: SPR, Biacore T200; CD22 amine-coupled to a CM5 chip; nanobody at 2, 4, 8, 16 and 32 nM; curve fit.

Assay [2] concerns the target T1, CD22蛋白胞外段 (CD22 extracellular domain, …). Kind of assay: SPR, Biacore T200; CD22 amine-coupled to a CM5 chip; screening of clones by affinity.

B1: BA125纳米抗体 (BA125 nanobody, VHH against CD22, C-terminal His tag) (VHH)
VHH: QVQLVESGGGLVQPGGSLRLSCAASGSIFGSNTMGWFRQAPGQQRELVAAMSTLGRTSYAVSVKGRFTISRDNAKNTVYLQMNSLKPEDTAVYYCKYTGTTPRDIYWGLGTQVTVSS
notes: also called 纳米抗体BA125克隆; BA125纳米抗体VHH区; not shown: C-terminal His tag
With B1, the Kd is 9.47 nM in assay [1] and around 10 nM in assay [2].
